This note sets out measurements from FireProtDB (doi:10.1128/aem.02129-17).

To fix the notation:
B1: Lipase, P19515 (parent)
chain: MVLKQRANYLGFLIVFFTAFLVEAVPIKRQSNSTVDSLPPLIPSRTSAPSSSPSTTDPEAPAMSRNGPLPSDVETKYGMALNATSYPDSVVQAMSIDGGIRAATSQEINELTYYTTLSANSYCRTVIPGATWDCIHCDATEDLKIIKTWSTLIYDTNAMVARGDSEKTIYIVFRGSSSIRNWIADLTFVPVSYPPVSGTKVHKGFLDSYGEVQNELVATVLDQFKQYPSYKVAVTGHSLGGATALLCALDLYQREEGLSSSNLFLYTQGQPRVGDPAFANYVVSTGIPYRRTVNERDIVPHLPPAAFGFLHAGEEYWITDNSPETVQVCTSDLETSDCSNSIVPFTSVLDHLSYFGINTGLCT

In this data set the parent is B1. As to conditions: Rhizomucor miehei; pH 8; Thermal; DSF; sodium phosphate buffer 50 mM; structure 6QPR; whole UniProt chain shown.

Consider T112K T116I E324I, for which the midpoint of thermal melting (Tm) (in general, the temperature at which the thermal transition is half complete) is 68.1 °C and the “change of melting temperature, mutant - wild type (higher = more stable)” value (from here on “change of melting temperature, mutant”) is 9.4 °C.
In the case of E324V, the Tm is 64.1 °C and the “change of melting temperature, mutant” value came to 5.4 °C.
In the case of E324M, the melting temperature (Tm) was 60 °C and the “change of melting temperature, mutant” value was determined as 1.3 °C.
For E324F, the midpoint of thermal melting (Tm) stood at 60.3 °C and the “change of melting temperature, mutant” value worked out at 1.6 °C.
For E324W the same measures were 61.4 °C and 2.7 °C.
Turning to E324Y, the Tm came out at 60.8 °C and the “change of melting temperature, mutant” value worked out at 2.1 °C.
Turning to E324R, the midpoint of thermal melting (Tm) came out at 59.9 °C and the “change of melting temperature, mutant” value came out at 1.2 °C.
For the variant E324P, the melting temperature (Tm) came out at 61.2 °C and the “change of melting temperature, mutant” value is 2.5 °C.
In the case of E324L, the Tm came out at 64.1 °C and the “change of melting temperature, mutant” value is 5.4 °C.
For E324I the same measures were 64.4 °C and 5.7 °C.
E324T: the midpoint of thermal melting (Tm) was found to be 62.5 °C and the “change of melting temperature, mutant” value worked out at 3.8 °C.
In the case of E314V, the midpoint of thermal melting (Tm) worked out at 58.8 °C and the “change of melting temperature, mutant” value is -5.3 °C.
With E314I, the Tm turned out to be 58.7 °C and the “change of melting temperature, mutant” value is -2.7 °C.
The like results for Q327I were, in that order, 59.5 °C and 2.3 °C.
Regarding N321L, the midpoint of thermal melting (Tm) was 59.3 °C and the “change of melting temperature, mutant” value is -13 °C.
As to T112K, the melting temperature (Tm) amounted to 63.2 °C and the “change of melting temperature, mutant” value was 4.5 °C.
For the variant T112I, the midpoint of thermal melting (Tm) was 58.1 °C and the “change of melting temperature, mutant” value is -3 °C.
The like results for T112W were, in that order, 57.8 °C and -2.2 °C.
For the variant D320L, the Tm amounted to 58.7 °C and the “change of melting temperature, mutant” value was -3.3 °C.
For T112K T116I, the midpoint of thermal melting (Tm) was determined as 64 °C and the “change of melting temperature, mutant” value turned out to be 5.3 °C.
T112K T116I E324I V283C D332C: the melting temperature (Tm) amounted to 72.3 °C and the “change of melting temperature, mutant” value stood at 13.6 °C.
Consider T112K E324I, for which the Tm is 66.7 °C and the “change of melting temperature, mutant” value worked out at 8 °C.
For S208W, the Tm was 59.5 °C and the “change of melting temperature, mutant” value came out at 3.9 °C.
As for S208F, the midpoint of thermal melting (Tm) was 59.2 °C and the “change of melting temperature, mutant” value is -6.4 °C.
On to S208V, for which the Tm came to 59.1 °C and the “change of melting temperature, mutant” value was -4.9 °C.
With S208Y, the Tm turned out to be 58.9 °C and the “change of melting temperature, mutant” value was -5.5 °C.
For N358W the same measures were 57.2 °C and -2.7 °C.
Consider T116I, for which the Tm was 61.1 °C and the “change of melting temperature, mutant” value was found to be 2.4 °C.
The like results for N280L were, in that order, 59.3 °C and -10 °C.
In the case of N280W, the melting temperature (Tm) was determined as 55.6 °C and the “change of melting temperature, mutant” value is -3.1 °C.
For N214L, the melting temperature (Tm) is 59.2 °C and the “change of melting temperature, mutant” value was -7.5 °C.
N214R: the Tm is 59.4 °C and the “change of melting temperature, mutant” value is -13.6 °C.
As for D332L, the Tm was found to be 57.8 °C and the “change of melting temperature, mutant” value is -2.5 °C.
Take D332W: the Tm turned out to be 58.7 °C and the “change of melting temperature, mutant” value was -4.5 °C.
For the variant D332P, the melting temperature (Tm) turned out to be 58.7 °C and the “change of melting temperature, mutant” value was -3.8 °C.
D332R: the Tm was 58 °C and the “change of melting temperature, mutant” value is -2.8 °C.
As for D332F, the melting temperature (Tm) came out at 58.2 °C and the “change of melting temperature, mutant” value is -3 °C.
For the variant D332Y, the melting temperature (Tm) came to 58.7 °C and the “change of melting temperature, mutant” value is -5.4 °C.
The like results for T112K T116I E324I S150C N157C were, in that order, 69.3 °C and 10.6 °C.
